Paper PMC2753740

Biological target: cp283Δ8, cp283 with an eight-amino acid deletion in the loop connecting the native termini (Candida antarctica)
Assay: SEC

With “cp283Δ8, cp283 with an eight-amino acid deletion in the loop connecting the native termini (enzyme)” the stoichiometry N was 3.
